From article PMC10381965

Target: CENP-A nucleosome (CENP-A^Nuc), histone octamer of CENP-A, H4, H2A and H2B wrapped with C0N3 or CEN3 DNA (S. cerevisiae) (UniProt P36012)
Test: SEC-MALS; CENP-A nucleosome (C0N3 or CEN3 DNA), CENP-C, CENP-LN, CENP-OPQU+, CENP-HIK-TW, CBF1 and CBF3^Core mixed at 2 μM; cross-linked with 3 mM BS3; 10 mM Hepes pH 8.0, 80 mM NaCl, 1 mM EDTA, 0.5 mM TCEP

stoichiometry N: 2
Substance: CCAN, fully assembled (CENP-C, CENP-LN, CENP-OPQU+, CENP-HIK-TW) (from UniProt P35201 1-549; P38265 1-245; P38907 1-458; Q06675 1-368; Q02732 1-369; P53298 1-406; P38313 1-324; Q12493 1-238; Q06162 1-153; Q12262 1-181; Q12748 1-733; P47167 1-239; P43618 1-361; Q2V2P8 1-89) (complex)
